Molecular target: STAT3 (Signal Transducer and Activator of Transcription 3), P42227
Sequence (P42227 2-770): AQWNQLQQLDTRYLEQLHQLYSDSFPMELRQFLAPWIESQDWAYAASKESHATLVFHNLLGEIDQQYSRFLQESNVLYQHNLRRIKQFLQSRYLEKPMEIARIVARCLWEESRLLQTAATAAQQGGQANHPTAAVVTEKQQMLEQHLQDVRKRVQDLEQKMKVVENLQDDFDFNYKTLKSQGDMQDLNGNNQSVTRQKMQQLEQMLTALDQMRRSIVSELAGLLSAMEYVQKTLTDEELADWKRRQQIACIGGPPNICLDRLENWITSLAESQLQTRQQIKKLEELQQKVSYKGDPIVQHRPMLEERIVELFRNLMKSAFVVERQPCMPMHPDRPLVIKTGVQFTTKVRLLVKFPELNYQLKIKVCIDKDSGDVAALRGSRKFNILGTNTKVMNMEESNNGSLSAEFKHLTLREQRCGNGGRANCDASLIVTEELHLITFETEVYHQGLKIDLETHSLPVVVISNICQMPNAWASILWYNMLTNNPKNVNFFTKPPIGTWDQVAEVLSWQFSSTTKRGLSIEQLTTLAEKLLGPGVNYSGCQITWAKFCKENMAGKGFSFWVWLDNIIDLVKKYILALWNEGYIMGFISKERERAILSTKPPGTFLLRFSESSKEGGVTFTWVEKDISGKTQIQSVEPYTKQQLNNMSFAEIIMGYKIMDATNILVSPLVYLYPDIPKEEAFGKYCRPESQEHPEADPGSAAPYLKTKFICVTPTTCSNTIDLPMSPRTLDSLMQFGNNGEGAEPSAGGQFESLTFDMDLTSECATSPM

B1: PKCδ (protein kinase C delta) (protein)
chain: MAPFLRISFNSYELGSLQVEDEASQPFCAVKMKEALSTERGKTLVQKKPTMYPEWKTTFDAHIYEGRVIQIVLMRAAEDPVSEVTVGVSVLAERCKKNNGKAEFWLDLQPQAKVLMCVQYFLEDGDCKQSMRSEEEAKFPTMNRRGAIKQAKIHYIKNHEFIATFFGQPTFCSVCKEFVWGLNKQGYKCRQCNAAIHKKCIDKIIGRCTGTATNSRDTIFQKERFNIDMPHRFKVYNYMSPTFCDHCGSLLWGLVKQGLKCEDCGMNVHHKCREKVANLCGINQKLLAEALNQVTQRSSRKLDTTESVGIYQGFEKKPEVSGSDILDNNGTYGKIWEGSTRCTLENFTFQKVLGKGSFGKVLLAELKGKDKYFAIKCLKKDVVLIDDDVECTMVEKRVLALAWESPFLTHLICTFQTKDHLFFVMEFLNGGDLMFHIQDKGRFELYRATFYAAEIICGLQFLHSKGIIYRDLKLDNVMLDRDGHIKIADFGMCKENIFGEGRASTFCGTPDYIAPEILQGLKYSFSVDWWSFGVLLYEMLIGQSPFHGDDEDELFESIRVDTPHYPRWITKESKDIMEKLFERDPDKRLGVTGNIRIHPFFKTINWSLLEKRKVEPPFKPKVKSPSDYSNFDPEFLNEKPQLSFSDKNLIDSMDQEAFHGFSFVNPKFEQFLDI
immunofluorescence with antiphospho-Tyr-705-STAT3 antibody after insulin stimulation, with or without rottlerin: Following insulin stimulation, PKCδ is activated and in turn phosphorylates and activates STAT3
